# Experimental data from US20060257410A1 (CHEMOCENTRYX, published 2006).
# T1: CXCR2 (UniProt P25025 1-360, limits assumed)
# T1 construct: whole, on cells
# T1 sequence (looked up): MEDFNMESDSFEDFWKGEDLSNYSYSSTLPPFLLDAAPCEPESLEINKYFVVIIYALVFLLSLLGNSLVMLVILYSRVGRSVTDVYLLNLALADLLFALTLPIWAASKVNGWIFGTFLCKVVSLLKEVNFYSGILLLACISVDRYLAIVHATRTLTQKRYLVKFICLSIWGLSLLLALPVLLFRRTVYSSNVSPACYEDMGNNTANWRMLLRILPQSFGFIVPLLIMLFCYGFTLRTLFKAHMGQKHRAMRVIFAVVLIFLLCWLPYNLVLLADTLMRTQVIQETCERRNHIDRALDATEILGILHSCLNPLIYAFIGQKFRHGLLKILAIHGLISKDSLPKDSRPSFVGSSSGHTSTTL
# Assays:
# [1] = biological target: T2, mouse homolog of CCX CKR2 (mouse, UniProt P56485 1-362); test: IHC on fixed paraffin embedded tissue sections
# T2 construct: whole, on cells; also called mouse CCX-CKR2
# CXCR2 = biological target: T1, CXCR2; test: flow cytometry on transfected HEK 293 cells
# T2 sequence (P56485 whole entry): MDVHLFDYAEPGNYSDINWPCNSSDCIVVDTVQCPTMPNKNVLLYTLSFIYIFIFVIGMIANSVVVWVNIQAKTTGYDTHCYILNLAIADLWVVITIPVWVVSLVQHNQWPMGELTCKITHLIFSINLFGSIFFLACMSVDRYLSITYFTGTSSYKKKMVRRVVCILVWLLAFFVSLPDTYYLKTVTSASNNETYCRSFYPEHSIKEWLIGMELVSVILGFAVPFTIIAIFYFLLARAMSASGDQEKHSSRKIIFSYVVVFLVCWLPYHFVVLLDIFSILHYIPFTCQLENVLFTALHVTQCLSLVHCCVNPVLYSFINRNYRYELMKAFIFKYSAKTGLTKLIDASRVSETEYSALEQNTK
binding result [1],binding result (CXCR2),Binder
binds,no binding,"monoclonal antibody 6E10 (antibody, V domains shown, Mouse hybridoma monoclonal antibody raised by gene gun inoculation with CCX-CKR2 cDNA) VH: EVKLDETGGGLVQPGRPMKLSCVASGFTFSDYWMNWVRQSPEKGLEWVGQIRNKPYNYETYYSDSVKGRFTISRDDSKSSVYLQMNNLRTEDTGIYYCTSLRYWGQGTLVTVSA VL: DIVMTQSPSSLTVTAGEKVTMSCKSSHSLLNSGIQKNFLTWYQQKPGQPPKVLIYWAFTRESGVPERFTGSGSGTDFTLTISSVQAEDLAVYYCQSDYTYPFTFGSGTKLEIKR"
binds,no binding,"monoclonal antibody 11G8 (antibody, V domains shown, Mouse hybridoma monoclonal antibody raised by gene gun inoculation with CCX-CKR2 cDNA) VH: EVKLVESGGDLVQPGGSLKLSCATSGFTFSDYYMFWVRQTPEKRLEWVAYITNGGDRSYYSDTVTGRFIISRDNAKNTLYLQMSRLKSEDTAMYYCARQGNWAAWFVYWGQGTLVTVSA VL: DVLMTQTPLSLPVSLGDQASISCRSSHYIVHSDGNTYLEWYLQKPGQSPKLLIYKVSNRFSGVPDRFSGSGSGTDFTLKISRVEAEDLGIYYCFQGSHVPLTFGAGTKLELKR"
